In this assay the target is T1, HA epitope-tagged PI3Kγ (pCMV-PI3 Kp110γ wild type) (Homo sapiens (Human), UniProt P48736 1-1102).
T1 construct: Full-length wild type with HA tag, expressed in transfected NIH-3T3 cells; also called HA-PI3Kγ
Put plainly: co-immunoprecipitation from cytosolic extracts of transfected NIH-3T3 cells.

T1 sequence (P48736 other isoform, or with tags, fused parts or gaps limits assumed): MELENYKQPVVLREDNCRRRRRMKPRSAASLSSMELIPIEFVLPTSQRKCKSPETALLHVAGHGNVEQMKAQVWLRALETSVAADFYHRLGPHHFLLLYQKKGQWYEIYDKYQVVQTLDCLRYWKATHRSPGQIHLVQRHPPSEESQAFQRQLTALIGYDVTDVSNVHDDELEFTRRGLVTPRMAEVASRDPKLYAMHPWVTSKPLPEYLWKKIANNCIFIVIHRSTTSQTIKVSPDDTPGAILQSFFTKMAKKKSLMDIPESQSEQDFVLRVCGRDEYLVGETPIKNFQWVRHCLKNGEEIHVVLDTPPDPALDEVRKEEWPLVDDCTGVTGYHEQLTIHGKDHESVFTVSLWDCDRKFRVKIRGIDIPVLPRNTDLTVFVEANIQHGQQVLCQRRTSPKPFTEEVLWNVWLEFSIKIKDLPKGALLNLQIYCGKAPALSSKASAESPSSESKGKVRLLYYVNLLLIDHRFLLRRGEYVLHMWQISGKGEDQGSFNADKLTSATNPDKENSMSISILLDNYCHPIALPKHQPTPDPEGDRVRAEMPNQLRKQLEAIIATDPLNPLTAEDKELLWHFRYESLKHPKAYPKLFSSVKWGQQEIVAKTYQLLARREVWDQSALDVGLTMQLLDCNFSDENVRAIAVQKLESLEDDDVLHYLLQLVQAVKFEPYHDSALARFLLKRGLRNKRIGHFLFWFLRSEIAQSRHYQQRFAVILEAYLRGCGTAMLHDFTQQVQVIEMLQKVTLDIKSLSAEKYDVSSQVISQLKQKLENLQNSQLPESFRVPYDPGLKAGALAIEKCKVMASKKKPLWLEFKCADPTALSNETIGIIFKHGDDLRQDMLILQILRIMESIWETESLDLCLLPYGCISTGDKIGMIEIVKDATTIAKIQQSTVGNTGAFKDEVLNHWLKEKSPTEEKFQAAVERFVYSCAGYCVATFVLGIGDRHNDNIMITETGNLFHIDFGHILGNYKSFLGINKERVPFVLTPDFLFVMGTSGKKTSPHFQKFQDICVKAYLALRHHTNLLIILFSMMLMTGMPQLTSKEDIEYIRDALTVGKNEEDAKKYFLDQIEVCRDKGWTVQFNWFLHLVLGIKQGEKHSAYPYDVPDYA

B1: β-adrenergic receptor kinase 1 (βARK1), bovine cDNA expressed in transfected cells (enzyme, UniProt P21146 1-689, looked up)
chain: MADLEAVLADVSYLMAMEKSKATPAARASKKILLPEPSIRSVMQKYLEDRGEVTFEKIFSQKLGYLLFRDFCLKHLEEAKPLVEFYEEIKKYEKLETEEERLVCSREIFDTYIMKELLACSHPFSKSAIEHVQGHLVKKQVPPDLFQPYIEEICQNLRGDVFQKFIESDKFTRFCQWKNVELNIHLTMNDFSVHRIIGRGGFGEVYGCRKADTGKMYAMKCLDKKRIKMKQGETLALNERIMLSLVSTGDCPFIVCMSYAFHTPDKLSFILDLMNGGDLHYHLSQHGVFSEADMRFYAAEIILGLEHMHNRFVVYRDLKPANILLDEHGHVRISDLGLACDFSKKKPHASVGTHGYMAPEVLQKGVAYDSSADWFSLGCMLFKLLRGHSPFRQHKTKDKHEIDRMTLTMAVELPDSFSPELRSLLEGLLQRDVNRRLGCLGRGAQEVKESPFFRSLDWQMVFLQKYPPPLIPPRGEVNAADAFDIGSFDEEDTKGIKLLDSDQELYRNFPLTISERWQQEVAETVFDTINAETDRLEARKKTKNKQLGHEEDYALGKDCIMHGYMSKMGNPFLTQWQRRYFYLFPNRLEWRGEGEAPQSLLTMEEIQSVEETQIKERKCLLLKIRGGKQFVLQCDSDPELVQWKKELRDAYREAQQLVQRVPKMKNKPRSPVVELSKVPLIQRGSANGL
notes: Over-expressed in NIH-3T3 or HEK 293 cells and immunoprecipitated with a βARK1 monoclonal antibody; also called GRK2; β3ARK1
Regarding B1, the binding result is reported as “binds”.
